Measurements taken from the DeepSol protein solubility set.

assay: soluble on expression in E. coli; label from the status in PepcDB or PDB records

| Sequence | soluble on expression in E. coli |
| --- | --- |
| MNAHVTSREGVNEFDDGIVIVGGGLAAARTAEQLRRAGYSGRLTIVSDEVHLPYDRPPLSKEVLRSEVDDVALKPREFYDEKDIALRLGSAAVSLDTGEQTVTLADGTVLGYDELVIATGLVPRRIPSLPDLDGIRVLRSFDESMALRKHASAARHAVVVGAGFIGCEVAASLRGLGVDVVLVEPQPAPLASVLGEQIGQLVTRLHRDEGVDVRTGVTVAEVRGKGHVDAVVLTDGTELPADLVVVGIGSTPATEWLEGSGVEVDNGVICDKAGRTSAPNVWALGDVASWRDPMGHQARVEHWSNVADQARVVVPAMLGTDVPTGVVVPYFWSDQYDVKIQCLGEPHATDVVHLVEDDGRKFLAYYERDGVLVGVVGGGMAGKVMKVRGKIAAGAPIAEVLDQTQA | soluble |
| MVRELKRFGARFTFLFSARRMCPLMTAEGSLPSVEDFWGNCRIARAKGVCSYYEELSRLDEAEVAQYVRSRPVISAYRLAWDIAKFKGACPFFALKGLVEDSQFIVATYPYLFKEDIFRSFLEPYDYGDFVAVVDEAHSLLNIHSLHEYRVSQRDLDLALKEVREYASSARDFIAWLESVLKKASRLKVSRITLLDKQPFLEGLDDLSVVEDVVETIRARKAEEALSLSGPSGIGRVKTMASRIYSWLSVLVRDDSYLFAEKDEGGVLWLIATPLDPSRVVKEPLEKVKAAVLLSGTMPSTKLYMEVLGVSRSFKFVDVNLMYGARGFGRFFTIVAADVTTAYRSRGDSMYRLIASRIAMADRLLPGLKLAVYPSYEVMYRVVERLPADVETIVETRGISLDEVEAKILARDPGEKIIINAVAGGKLVEGVEFVDYEGRNLLSTVIVVGVPFPQPDDYTRKHLEVMASRIGVSNARKLVYLVNPMIKVRQALGRGIRGPEDRALYILMDYRYLRRDLKEVLGMPYHRVVKGAEDFEEAVKAARSRVFGG | soluble |
| MGSDKIHHHHHHMKEVFDLRGRVALVTGGSRGLGFGIAQGLAEAGCSVVVASRNLEEASEAAQKLTEKYGVETMAFRCDVSNYEEVKKLLEAVKEKFGKLDTVVNAAGINRRHPAEEFPLDEFRQVIEVNLFGTYYVCREAFSLLRESDNPSIINIGSLTVEEVTMPNISAYAASKGGVASLTKALAKEWGRYGIRVNVIAPGWYRTKMTEAVFSDPEKLDYMLKRIPLGRTGVPEDLKGVAVFLASEEAKYVTGQIIFVDGGWTAN | soluble |
| MGSDKIHHHHHHMLATTIGSIAMRRRVSSLVKVRPAGAATQPALGLRVPLVALVQALAVAEHLNFRHAADALGISQSSVSTRIKQLEQDLGVQLFERRHRGVRLTEAGQHFLEHVATGIEHLDHAVRTAGAIARGERGRLRVGLYSSIFAGFLAELLGQFRGQYPTVDLQIMEGRARDTIRAVREARLDVAFVVGVPKVSDCHSKPLWTEALFVALPERHALAEAEGVTWPALSGASFLARTGGPGPQVHDHIVLRLAGHWCQPRIQRFDVERDTLMSMVAQGYGITLTSEAAAQVPFPGVVFRPVLDETELITFSALWSPHNRCQTLLHLLALAEQKSEGRSLGI | not soluble |
| MQVLSEATPMTNGEVYALLRRRRDERNAARHPPFGLQPVLADSHQRAAVATGAAAATAVAPSAPASASAISRAASVMSHNSVGQHSGSKAAPAGAIESAASAAAASTASILASPSSVHLVVLLTEVTMLNYIANHSSLLLESARPTPAGVRVRTCTPRDVYGPTSVYNRVVGTEGRSDAAVGASATAAGSLLDAELVSSCYAKLASHRPGTRGHVRGVEELLEHFEEVGRAQERLYAAGVRRAVQQLWRRRLWVPAEGLYPPPSPPFATTAPSLSNGSALVKAEPVAEEDVDGTAEAVQRLSQDKAARQSGAGETNHDAEGAQPTNASHLVTPLLLEPTPLWGPAARNGGGKGSVDGGAATASMAHSPLSYHVQLQLQQASRSLLSEAEVLQLVVGRPQRALDVYRLLDDVDDRLQYREEAVNAFVEAVTGVFAE | not soluble |
| MDWKKIYEDRTCTADEAVKSIKSGDRVLFAHCVAEPPVLVEAMVANAAAYKNVTVSHMVTLGKGEYSKPEYKENFTFEGWFTSPSTRGSIAEGHGQFVPVFFHEVPSLIRKDIFHVDVFMVMVSPPDHNGFCCVGVSSDYTMQAIKSAKIVLAEVNDQVPVVYGDTFVHVSEIDKFVETSHPLPEIGLPKIGEVEAAIGKHCASLIEDGSTLQLGIGAIPDAVLSQLKDKKHLGIHSEMISDGVVDLYEAGVIDCSQKSIDKGKMAITFLMGTKRLYDFAANNPKVELKPVDYINHPSVVAQCSKMVCINACLQVDFMGQIVSDSIGTKQFSGVGGQVDFVRGASMSIDGKGKAIIAMPSVAKKKDGSMISKIVPFIDHGAAVTTSRNDADYVVTEYGIAEMKGKSLQDRARALINIAHPDFKDELKAEFEKRFNAAFSAWSHPQFEK | soluble |
| MCEQGVSYYNSQELKCCKLCKPGTYSDHRCDKYSDTICGHCPSDTFTSIYNRSPWCHSCRGPCGTNRVEVTPCTPTTNRICHCDSNSYCLLKASDGNCVTCAPKTKCGRGYGKKGEDEMGNTICKKCRKGTYSKTGHHHHHH | soluble |
| MGTKTKKTLFNVDEQMKAIAAQFETLQILNEKGEVVNEAAMPELSDDQLKELMRRMVYTRVLDQRSISLNRQGRLGFYAPTAGQEASQLASHFALEAEDFILPGYRDVPQLVWHGLPLYQAFLFSRGHFMGNQMPENVNALAPQIIIGAQIIQTAGVALGMKLRGKKSVAITYTGDGGASQGDFYEGMNFAGAFKAPAIFVVQNNRYAISTPVEKQSAAKTVAQKAVAAGIYGIQVDGMDPLAVYAATAFARERAVNGEGPTLIETLTFRYGPHTMAGDDPTRYRTKDIENEWEQKDPIVRFRAFLENKGLWSQEVEEKVIEEAKEDIKQAIAKADQAPKQKVTDLMEIMYEKMPYNLAEQYEIYKEKESK | not soluble |
| MERLFKHICLVARHSKPGITPALMQLANHLAAGGATVLIDKESVTPDEANGYPLIDRTDMGKLADLCIVLGGDGTMLSIARLLAPYRVPLVGINQGRLGFMTDIPLHEMLDSVDAILHGKFVPEDRILLQAAVVREDAEVASALAFNDVVFSRGAVGSMIEFEVFIDNQFVYSQRSDGLIVSTPTGSTAYSLASGGPILHPTLQAIALVPICPQSLSNRPIAVNDSCEVEFMLTRGLDARVHFDGQLHCDLMEMDRVLIRRYRNPLRILHPEGYNYYDMLRHKLHWGERLILEHHHHHH | soluble |
| MSLADPIKIGVIAEAQAIAGASIPQAAQLAAEEINAKGGIDGRKIEIVSYDNHSSSADSVRAFQRAVNEDKVNAVIASYISEVVLALMPWASRLKTPFVTPGAASNEITKAINKDYEKNKYTFHGYLTSGELAQSVCDAAKDLLVDARQMKSAVIMSEDAAWTKPLDVGYQECLPKVGLKVLDHIRFSPDTTDFTPIFNKIEGSKPDVIITGISHVGVQPTVQWKNQQVPIPMFGIASQATNETFGKDTNNASDGVLYQGVSGPGVAVTSKSVPFAENFKKKYGNYPSYAGYTAYDEVYYIAEAVKRAGSTDGEKLVEALEKTDYEGTIGRVQFYGKDEPFTHGLKYGKGLLTGLMLQWQDGKQVAVWPPEVAKAEGHHHHHH | soluble |
| MGSDKIHHHHHHELPDNRTELNENNVGKILLSAYPTTAICEMGEMSSDNTDAYPNRFSSFNRLQEDLYKWADSAEQDQDSPHALWESCYMAISACNEVLKVIEDAGNPASLSAEKGEALVCRAYAHFLLANIFCNAYSSQASSDLGIPYMKTIETTVSPDYQRGTLEEVYQNIEKDLLEGLDLVTDIYAVPKYHFTKKAAQAFAARFYLYYVKSDKSNYTKVIDYATKVLGSNPATSVRDWKSLGALDINGSVQPNAYVDATNGANLLLVSAGSYWGYVHAPYGLGERYAHGPKVGNETCNSVGPWGSDYYMGVWSNSSALPTKIVVMKITQYKEVVDAVAGTINGHMINAAFTTDETLLCRAEAYAMKEMYPQAIADLNIWREAYTRSTTPLTTESINDFYGSMEYYTPTESTVKKKLNPDFTITNETQENVIHCILHARRLTTLHEGLRWQDIKRYGITIYRRLMNDNGTITVTDKLEPNDPRRAIQIPSDVISAGLKPNPRTK | not soluble |
| MGSIISRTIPGQGHGNQYYPGVQWDVRDSAWRYVTILDLPFSLVFDTLLLPIDIHHGPYELEHHHHHH | not soluble |
| MSLNGITKYVEKVKGLLFSSVQSQKRIEFSNNDEKVMLSNVPLIQQLPELDRGCEVTSLAMMLQYAGVSVDKMKLANEIKKVNFMEDGVRGNPNEGFVGNIYTFSESGYGVYHGPLFQLAKKYLPNKAVDLTGKSIEEIYKSVKAGHPVVMITNATYAPLDEDEFTTWETNSGDVSITYNEHCVVLVGYDKESVYIRDPLDDSLDVKVPREKFEQAWVQMGSQAISYVNKSKEGHHHHHH | soluble |
| MKERIVGQSGELFCFGQMPVWKVENLPEVLLSGYSSEEGEWVCLNVLQGDVEVRAPDGAAEVWSAESGDCVFAPQQVFSVKPKTDDAEIRLSLYCAAADYFHKKYGMSATHSAVAAAQDTVPAGRALDMGCGQGRNALFLGLKGFDVTAADCNPAALANVAELAEAEGLNVRTLEYDLNAAALQGEFDYIVATVVLMFLMPQRVPDVIADMQAHTAAGGYNLIVSAMDTADFPCPMPFPFKFKEGELKDYYRDWELVEYKEELGAMHAKDENGNPIRFKFVTMLAKKPGLEHHHHHH | soluble |
| MSLNADTLEDIKKAGVIKAATEMQFPPFDFLEGDKYVGVDRDLMDEVAKELGVKVEYIDLPWTSVLPGLEAGKFDLVIAPVTITKERLARYAFTLPISEGTAALMKRADDDSITKPEDIAGKTIGGGKGTSQLGQIKEYAAALPGKVEFKEYVDSNQSYADLAAGRVDASVNSYPNLAYAAAQRPETFAVVLPPFGKTTYFSWVSRLGEKDASLVEAVNAALLKLGEDGRMSAIHEKWFGKGVDLPKEGHHHHHH | soluble |
| MGHHHHHHSHMKPNVGQGSTSVQTAMESELGESSATINKRLCKSTIELSENSLLPASSMLTGTQSLLQPHLERVAIDALQLCCLLLPPPNRRKLQLLMRMISRMSQNVDMPKLHDAMGTRSLMIHTFSRCVLCCAEEVDLDELLAGRLVSFLMDHHQEILQVPSYLQTAVEKHLDYLKKGHIENPGDGLFAPLPTYPYCKQISAQEFDEQKVSTSQAAIAELLENIIKNRSLPLKEKRKKLKQFQKEYPLIYQKRFPTTESEAALFGDKPTIKQPMLILRKPKFRSLR | not soluble |
| MSLAPRPRILICEDDPDIARLLNLMLEKGGFDSDMVHSAAQALEQVARRPYAAMTVDLNLPDQDGVSLIRALRRDSRTRDLAIVVVSANAREGELEFNSQPLAVSTWLEKPIDENLLILSLHRAIDNMAEGKPRILHVEDDLDIQRIAAAIAQNFATFEFACTLQEARDQLASHHYDLVLLDLTLKDGSGWELLSTIEALDPAPPVVVFSASKLNMMESQRVEAVLVKADTSNEELIRVLQRVLDDSLWGTVDSPLSEGHHHHHH | soluble |
| MGGSHHHHHHGMASTQLFLWEYGDLHLFGPNQRPAPCYDPCEAVLVESIPEGLDFPNASTGNPSTSQAWLGLLAGAHSSLDIASFYWTLTNNDTHTQEPSAQQGEEVLRQLQTLAPKGVNVRIAVSKPSGPQPQADLQALLQSGAQVRMVDMQKLTHGVLHTKFWVVDQTHFYLGSANMDWRSLTQVKELGVVMYNCSCLARDLTKIFEAYWFLGQAGSSIPSTWPRFYDTRYNQETPMEICLNGTPALAYLASAPPPLCPSGRTPDLKALLNVVDNARSFIYVAVMNYLPTLEFSHPHRFWPAIDDGLRRATYERGVKVRLLISCWGHSEPSMRAFLLSLAALRDNHTHSDIQVKLFVVPADEAQARIPYARVNHNKYMVTERATYIGTSNWSGNYFTETAGTSLLVTQNGRGGLRSQLEAIFLRDWDSPYIHDLDTSADSVGNACRLL | not soluble |
